Drawing on paper PMC8149785, this text covers Kd for one substance.

What is called Kd is the free concentration of one partner at which half of the binding sites on the other are occupied at equilibrium, for simple one-to-one binding. A lower Kd goes with higher affinity.

One experiment has as its target human C3b (human) (UniProt P01024). Put plainly: SPR; C3b amine coupled to a C1 chip (233 RU murine, 258 RU human); FH flowed over, two-fold dilution series from 2 uM to 6 nM; BIAcore T200, 25°C, HBSP+ (10 mM HEPES, 150 mM NaCl, 0.05% P20); equilibrium data, 1:1 binding model.
For another experiment, the target named is mouse C3b (mouse) (UniProt P01027). The experiment is described as above.

Regarding “recombinant murine factor H (from UniProt P06909 19-1234) (natural protein)”, the Kd was determined as 1600 nM with human C3b (human) and 1200 nM with mouse C3b (mouse).
